{
  "source": "the DeepSol protein solubility set",
  "data": [
    {"assay": "soluble on expression in E. coli; label from the status in PepcDB or PDB records", "values": [
      {"sequence": "MIVLIDGPSGSGKTTFAGFLGEILGMRIVHFDDLYPGWHGLAAGVKIVTALLEGAGGYHRWDWANNVMGPWVEVPERNLIIEGVGSLAPSVVRAARQHGPVLTMLFDGPEQMRRSRALARDPFYEPWWEMWAEQEARHFATVETPDVTRGYP", "soluble on expression in E. coli": "not soluble"},
      {"sequence": "MGSDKIHHHHHHMEISDIIYGQHHIDGVLEELIKSAPVQRLKGIYQGGASFLVNRKWNVTRYEHSIGVMLLIKKLGGTIEEQIAGLLHDVSHTAFSHVVDVVFENQAEDYHENIFQQVIVHSEIPDILQKHGYHTEELLSDDSRWTLLEQPAPELCADRTDYTLRDMYRYGHINLHEAQTFLDHLIVRNGRMFPDSIEAAEWFVSVYYKEVIDFFLNPVNVYGYEYLARALKAALRHDVISAEDLLKTDQEVLNILRASKNEEVLSLLTSIHPGIQVIEDDIQYDFHQKKKMRLIDPSIFLDDKWIKSSGVSEKVRKMGEAAYQKAKKGVYIKILKQ", "soluble on expression in E. coli": "not soluble"},
      {"sequence": "MEDERIKLLFKEKALEILMTIYYESLGGNDVYIQYIASKVNSPHSYVWLIIKKFEEAKMVECELEGRTKIIRLTDKGQKIAQQIKSIIDIMENDT", "soluble on expression in E. coli": "soluble"},
      {"sequence": "MGSDKIHHHHHHMKVMKDYKLMAVGQIVADCFDYAKVFNKYGIDFCCNGDVSLADACGKMGIDADCLLEELKQIKSEQSLTLDFKSWPIDLLVDYILKFHHRNIRYQGPQILQLLDRVCEAHAGKHPELYEVRELFQESWIDLNNHLTKEEMVLFPYIYDLFDAVAQHRPIPAFHCGSVSSPISVMMSEHDAEGERFRRISGLTHGYLVPGDACSSYRLLLEMLRTFEDNLHHHIHLENNIVFPKAIELQENCE", "soluble on expression in E. coli": "not soluble"},
      {"sequence": "GPGSMSVRIRFILTGACPPSYSGKQVQLNFPLEDENGAPTTTAHLKQLIRTQWPENMSEMKEVVEKTEMRVLKTGNLLSDDTQIRSVLTATELSECSINPSAEGSGRADEDQKSVLMHLVFQSNQSQGRQRDGSAGGGRRDNASHDSGCCTML", "soluble on expression in E. coli": "soluble"},
      {"sequence": "MGSDKIHHHHHHMEQDDKKLFVLDTNVLLHEPLAIYSFKEHDVVVPMTVLEELDQIKDRKRDVSRDARVAIRALEDILGGQTTPEEIVSGVPLPKREGHGDAVGSLSIFPDHQLEFTQASLPGDNNDNRIINTALHLQNQFAPRHVVLVTKDINMRLKAKGAGINLVEDYRTDQLIDDIRFLTKGFHQFEGDFWARKEHVNTETQGRHTVHRVPVKEVGEENFYTNQYLIDEDSNFCGRVLSNNDEELEILDLGRDRLLNLDAWGIKPKNVYQGMAMQALLDPDIDLVILTGPAGCGKTLLAMAAALEMVVERGLYDKVIVTRNTPEIAESIGFLPGTEEEKMAPWLAAITDTLEVLHKHDVNPSGSMNYIMDKANIQFKSINFMRGRSIQNSVVLLDECQNLTASQIKTMITRMGEGTKLICSGNLAQIDSNYLTAVTSGLTYIVERFKNFDGSANIYLNGVVRSRLAEFAEENL", "soluble on expression in E. coli": "not soluble"},
      {"sequence": "MGSSHHHHHHSSGLVPRGSHMASEVDKRREINNEHPLLMMPLYANGEEFNQGKYTFWGGDTLTGKWENIPDDLKPYTVIQLHPDDLPKRDGAARDFYEHMLEEAAKYVNPKTGKNEPIPVILTVYTAGNMPYYTSAHWLSTSWIDKMYQKYPNLHGIFSTANYWIWANDIENKAADYLKVSAKNGGYFIWAEQNNGSAIEKAFGKNGKIAFQKSVDKYWKNLIFMFKNTPAAEGNDSTTESYMKGLWLSNHTYQWGGLMDTWKWYETGKWKLFASGNIGKSQGDRQWLTEPESMLGEEALGVYLNGGVVYNFEHPAYTYGVNNKESLLFSEVIKEFFRYVIAHPAPSKEKVLEDTKVFIHGDYSNKGNGKFFVNVNTDREQTPLYMTGRYNVIPAIPGVLKTDKLKESVSSSRIQIKEITSPEFSSTQARKEYLNKLYPMNYEGDIFAQKLDNRWFVYNYKVNENVKQTGKLKFNSLEMNVEFEPHTYGIFERISNGLKVNLNNFRTNKDSLWSNAQDANQAKKLPQLTKKGAIKWIEEHYIKDTQFGEKRVTKIVLRGIDKLPTIHSLSGTNNSYDQPSLNFDQKNHMVTITINSNGNLEFELHF", "soluble on expression in E. coli": "soluble"},
      {"sequence": "MGSDKIHHHHHHMMLVQLRQVGVIRSPYKNFSKAPHQGRFSKETVEIEIFPEFEDGLKDIETCTHLIVLYWLDRANRDALLVVPPHDSREHGVFATRSPHRPNPIGFAVVELLERDGRVLKVKGLDALDGTPVVDIKPYSSTIDSVGNAKIGWFEEANPQSKLTRLLLRAKEFHGHICPFVALGVRMSVIAMEKLGVEEDAMASVGEDILAIVECNNCLTDGVQVATGCTLGNNSLIYLDLGKNALTIVRRKDWKGVRVYVNAENVRKYFSKEALELFNKVIVRREGSEEDAKRLSEFWEETGWKMLEIPEEEFKVEFVEVQPIERAPIFENKRCEKCGELAMATRVKDGLCLRCAGSYYAVVGRGIVKFDGEMREVV", "soluble on expression in E. coli": "not soluble"},
      {"sequence": "MAGQTLKGPWNNLERLAENTGEFQEVVRAFYDTLDAARSSIRVVRVERVSHPLLQQQYELYRERLLQRCERRPVEQVLYHGTTAPAVPDICAHGFNRSFCGRNATVYGKGVYFAKRASLSVQDRYSPPNADGHKAVFVARVLTGDYGQGRRGLRAPPLRGPGHVLLRYDSAMDCICQPSIFVIFHDTQALPTHLITCEHVPRASPDDPSGAHHHHHH", "soluble on expression in E. coli": "soluble"},
      {"sequence": "MRKMKKMDADTLTAILAFQRLSGTGKSLLEGAAKDAEAGRYSIIAINPVHEIKVYQHDYYIDGTHQVVADPLKEIELFIEKAREDELELPLDSGAIGYVGYDVIALYEDLGEIPVETRDIPDIRFYVYESFVIMDHQAEELILVQDNCYSGRSEADLDKALESMLTELTTPKKDEHKAVHVPKMSYKSNYTKDEYMGLVKKAKTYIQEGDFFQIVLSQRLEADFTVKPFDYYRKLRLLNPSPYLYFIDFGDTVLIGSSPESLIKTKGRTVITNPIAGTRRRGATKQEDELLASELLSDEKELAEHRMLVDLGRNDIGKIAETGSVHVPVYLTIERYRFLMHLVSVVEGTLKTGLTAIDALRSTLPAGTVSGAPKIRAMERIYEWENVKRGPYAGAVGYLTKNGDSDFALSIRTMVLHNGKAYVQAGAGIVYDSDPESEYLETLQKAKALLEVGE", "soluble on expression in E. coli": "not soluble"},
      {"sequence": "MSIYSKILVVADINHDEQPALARAMQLAQKSTSVSHITFFLSIYDFSYDMTSMLSLEERDAMRKGVIHQREQWMRSIAEPYLDKSVQFDIKVVWHNRPYEAIIGEIFAGEHDILIKATRKHDMLESVIFTPTDWHLMRKCPTPVLLVKNADWPENANIIASVHVGSELDTHIDLNDRMVEQLLNLSKRLGASPYLVNAYPVTPANITIELPEFDPTTYTDAVRGHHLTAMKALRQKHGLSEEQTLVQQGLPEDVIPEAAKQLNAAMVILGTTGRTGLSAVFIGNTAEHVIDKINCDVLALKPNGYVSPLDPQTAI", "soluble on expression in E. coli": "not soluble"},
      {"sequence": "TVRVRLAPSPTGNLHIGTARTAVFNWLYARHRGGKFILRIEDTDRERSRPEYTENILEGLQWLGLTWDEGPYFQSDRLDLYRQAIQTLLDKGLAYYCYCTPEELEALRAEQKAKGQAPRYDNRHRHLTPEEQAAFEAAGRTPVIRFKIEDDRQIEWQDLVRGRVSWQGADLGGDMVIARAAPRGEIGYPLYNLVVVVDDIAMGITDVIRGEDHIGNTPKQILLYEALGATPPNFAHTPLILNSTGQKLSKRDGVTSISDFRAMGYLAPALANYMTLLGWSPPEGVGELFTLDLAAKHFSFERINKAGARFDWDKLNWLNRQYIQQLEPEEFLAELIPLWQGAGYAFDEERDRPWLFDLAQLLQPGLNTLREAIDQGAVFFIPSVTFDSEAMAQLGQPQSATILAYLLEHLPAEPALTVAMGQQLIQQAAKAAGVKKGATMRTLRAALTGAVHGPDLMAAWQILHQRGWDEPRLAAALKQAQTTSLEHHHHHH", "soluble on expression in E. coli": "soluble"},
      {"sequence": "MGSDKIHHHHHHMPRNMPCPDNTMPSLSFWWRYPYLRVLVVVLLMTSQPCAISAQASTSPSVAQSSLRHLSDQLPIVGVWLTNSPSPLYYSRNLMHKAVKDLYSAGFTALYLNVWSRGSTFHRSNYAPVEGPLQKAGLALDPICTLSREGHARGMKVMPWFEYGLMEPDDAEVVKLHPDWVLARADGNPVVKMHGNHQRVWLNPAHPEVRARFIGVVIEVMKRCKMDGVQLDDHFAWPVKLGYDPYTVALYQQETGSSPPRDYSDRFWMQWRRRKLTGLLRELRQALEKEKLPVNISLAPGPFRFAYNNWLQDWELWTVGKLIDELVVQNYAYSLKGFAKDLDQPALRKAPQLGVPVHIGVLAGFGKRTTPMPILAEKVRMAAERGHGVIYFYWEGLWGQHAGIEGGIQRLRQFKQLHEKKN", "soluble on expression in E. coli": "not soluble"},
      {"sequence": "SDTGFADSNNDSSPGEGSKRGNSGIEGPVPMDVELAAAKSKRLSEPFFLKNVLLEKSGDTSDLTALALSVHAVMLESGFVLLDHGSDKFSFSKKLLSVSLRYTLPELITRKDTNTVESVTVRFQNIGPRLVVYGTLGGSCKRVHMTSLDKSRFLPVIDLVVDTLKFEKQGSSSYYREVFMLWRMVKDELVIPLLIGLCDKAGLESPPCLMLLPTELKLKILELLPGVSIGYMACVCTEMRYLASDNDLWEHKCLEEGKGCLWKLYTGDVDWKRKFASFWRRKRLDLLARRNPPIKKSNPRFPTLFPDRRDRREPFDRFGPSDFYRFGLRDPRDRFGPRDPRDPHFYGFRY", "soluble on expression in E. coli": "soluble"},
      {"sequence": "MVDIDSAVEAARRRGARRIVLQLPEGMLQYGLYIAKCFEEMLGGAAQVYLHADPTFGACDLHYGELDTTVRPDLIVHVGHSPYPAELAHEGLEPRGRVVYVRALSKSQLPLDALREAAGLLASRYGVRRVGIATTAQHTHLAEKAAEVLRGEGLEVAVPPGLRPYFGAAQVLGCDYRLARGVRADGFVYVGGGVFHPLGLYLATLKPVVQVDPYRGVSEDLTREGEKLYRSRLYRVSQSIGARRWGIIVGLKSGQYRPWLVEKLARAIESAGGEYLLVASEVTTLSQLVAIDNPWFEAFTVTSCPRLPTDDFWSYEKPVLTPGEAMMALEGRLEPYRFPWAAALEHHHHHH", "soluble on expression in E. coli": "not soluble"},
      {"sequence": "MNPFIVADAESCIGCRSCEVACVVAHHEGQFPDKPEYFTPRVKVFKGDQCATAVFCHHCEDAPCASTCPNGAIVELNNRVQVIQEKCIGCKTCMIACPFGMMTVVTETVQPASHRLADVYRRTEAQKCDLCLDQPDGPACIKTCPTQALTLVDQQYLLHQQQQKRQHMALNEHNGRLFSRAVVQAASASSNKSIRDATPVNLLQRPRAPRLEPKKIPLAERKTGFAEIYLPFTESQIHEQAERCLECGDKTICQWTCPLHNAIPKWISLAHQGRIHEAAELSHQTSSLPEVCGRVCPQDRLCEQSCTLNDHDGAVTIGQIERHITETALATGWRPDLSQVKPSGKRVAIIGAGPAGLGCADILVRNGITPVVFDRYPEIGGLLTFGIPAFKLEKSVMTRRREIFTEMGVEFCLNTEIGRDITMENLLHDFDALFLGVGTYRSMRSGLENEDAQGVYDALPFLIGNTQHLMGYTANGAHPYVSMQDQRVVVLGGGDTAMDCVRTSLRQGASRVVCAYRRDEKNMPGSKREVKNAREEGAEFMFNLQPMSIVVDESGQVTGIKMVRTEMGQADAQGRRQALPITGSEHLIPADAVIMAFGFSPHRMSWLAEHNVVLDKHGRVVAPTISGYPYQTSNPKIFAGGDIVRGADLIVTAIAEGRKAAESIAYYLNVL", "soluble on expression in E. coli": "not soluble"},
      {"sequence": "MTSAYFGVAGGGNAGAQSAYFGVGGGPAGGGGGNKSAGGGGAPPPGVSCYLGAGAGGAASGSQSAYFGVGGGPVGGGGGGGAPPAASNDAGYFATPPAAPAGGSSTMTAVGGAPRGASTMTAVGGAPVGGSSTMTAVGGAPSGASTMTAIGGAPRGASTMTAVGGAPMGGGSTMTAVGGAPSGASTMTAVGGAPSGASTMTAIGGAPRGASTMTAVGGAPMGGSSTMTAVGGAPIGGSSTMTAVGGAPRGASTMTAVGGAPGGASTMTAMGGGPSAFGGAPPPPSGSAMGGGGGGGATSAYFGVGSGAMGGGGAGAQSAYFGVGGGPVGGGGGGAKSGGGGGGIPGQSVYMGAGGGGGGGGGGGATSAYFAPR", "soluble on expression in E. coli": "not soluble"}
    ]}
  ]
}
